Assay results from patent publication US7067277 (H LUNDBECK A S, dated 2006).
Residue numbers refer to the chain shown, from its start.

B1: Human Gαq/z5 (Ala→Ser substitution at position 171) (other)
chain: MTLESIMACCLSEEAKEARRINDEIERQLRRDKRDARRELKLLLLGTGESGKSTFIKQMRIIHGSGYSDEDKRGFTKLVYQNIFTAMQAMIRAMDTLKIPYKYEHNKAHAQLVREVDVEKVSAFENPYVDAIKSLWNDPGIQECYDRRREYQLSDSTKYYLNDLDRVADPSYLPTQQDVLRVRVPTTGIIEYPFDLQSVIFRMVDVGGQRSERRKWIHCFENVTSIMFLVALSEYDQVLVESDNENRMEESKALFRTIITYPWFQNSSVILFLNKKDLLEEKIMYSHLVDYFPEYDGPQRDAQAAREFILKMFVDLNPDSDKIIYSHFTCATDTENIRFVFAAVKDTILQLNLKYIGLC
B2: C. elegans Gαq/z5 (other)
chain: MACCLSEEAREQKRINQEIEKQLQRDKRNARRELKLLLLGTGESGKSTFIKQMRIIHGQGYSEEDKRAHIRLVYQNVFMAIQSMIRAMDTLDIKFGNESEELQEKAAVVREVDFESVTSFEEPYVSYIKELWEDSGIQECYDRRREYQLTDSAKYYLSDLRRLAVPDYLPTEQDILRVRVPTTGIIEYPFDLEQIIFRMVDVGGQRSERRKWIHCFENVTSIMFLVALSEYDQVLVECDNENRMEESKALFRTIITYPWFTNSSVILFLNKKDLLEEKILYSHLADYFPEYDGPPRDPIAAREFILKMFVDLNPDADKIIYSHFTCATDTENIRFVFAAVKDTILQHNLKYIGLC
B3: C. elegans Gαq/z9 (other)
chain: B2 chain with H347N

Columns and labels:
Experiment in all cases: cell-based or functional assay
[1] = molecular target: human dopamine D1 receptor (human, UniProt P21728 1-446)
human GALR1 receptor = molecular target: T1, human GALR1 receptor (human, UniProt P47211 1-349)
T1 sequence (looked up): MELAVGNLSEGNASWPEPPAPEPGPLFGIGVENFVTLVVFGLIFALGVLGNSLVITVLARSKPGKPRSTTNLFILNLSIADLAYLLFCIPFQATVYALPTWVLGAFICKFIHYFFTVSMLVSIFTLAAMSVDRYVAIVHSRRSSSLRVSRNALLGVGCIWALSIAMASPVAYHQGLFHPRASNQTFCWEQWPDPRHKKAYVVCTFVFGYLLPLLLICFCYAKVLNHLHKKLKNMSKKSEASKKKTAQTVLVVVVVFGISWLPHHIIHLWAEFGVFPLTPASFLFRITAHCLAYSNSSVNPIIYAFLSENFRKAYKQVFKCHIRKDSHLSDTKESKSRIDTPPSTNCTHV

human Y5 receptor = molecular target: T2, human Y5 receptor (human, UniProt Q15761 1-445)
T2 sequence (looked up): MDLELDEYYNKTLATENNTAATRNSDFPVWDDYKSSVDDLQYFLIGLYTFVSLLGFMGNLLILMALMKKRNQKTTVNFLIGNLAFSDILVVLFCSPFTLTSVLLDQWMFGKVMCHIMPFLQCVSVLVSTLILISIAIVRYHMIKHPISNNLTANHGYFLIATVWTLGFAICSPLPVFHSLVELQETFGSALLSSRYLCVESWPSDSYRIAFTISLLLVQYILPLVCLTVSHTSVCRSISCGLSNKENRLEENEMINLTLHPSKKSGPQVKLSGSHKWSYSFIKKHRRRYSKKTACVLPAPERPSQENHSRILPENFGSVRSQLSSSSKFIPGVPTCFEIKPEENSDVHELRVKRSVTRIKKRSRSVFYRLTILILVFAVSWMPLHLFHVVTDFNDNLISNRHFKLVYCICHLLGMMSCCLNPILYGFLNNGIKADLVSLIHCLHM

[2] = molecular target: T3, human α2B adrenergic receptor (human, UniProt P18089 1-450)
T3 sequence (looked up): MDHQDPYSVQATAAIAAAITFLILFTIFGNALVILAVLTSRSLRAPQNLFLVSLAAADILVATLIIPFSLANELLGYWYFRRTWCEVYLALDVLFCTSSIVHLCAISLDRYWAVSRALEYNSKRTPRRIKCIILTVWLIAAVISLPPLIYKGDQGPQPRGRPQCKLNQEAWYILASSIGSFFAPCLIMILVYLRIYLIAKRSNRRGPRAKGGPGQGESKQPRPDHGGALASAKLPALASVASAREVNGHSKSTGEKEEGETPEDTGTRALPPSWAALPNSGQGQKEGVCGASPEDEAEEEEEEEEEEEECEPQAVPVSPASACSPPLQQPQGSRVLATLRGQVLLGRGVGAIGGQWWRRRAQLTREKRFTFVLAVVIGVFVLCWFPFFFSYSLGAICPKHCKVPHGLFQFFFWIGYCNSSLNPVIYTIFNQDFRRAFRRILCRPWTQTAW

[3] = molecular target: human dopamine D3 receptor (human, UniProt P35462 1-400)
[4] = molecular target: human kappa opioid receptor (human, UniProt P41145 1-380)
[5] = molecular target: T4, human α2C adrenergic receptor (human, UniProt P18825 1-462)
T4 sequence (looked up): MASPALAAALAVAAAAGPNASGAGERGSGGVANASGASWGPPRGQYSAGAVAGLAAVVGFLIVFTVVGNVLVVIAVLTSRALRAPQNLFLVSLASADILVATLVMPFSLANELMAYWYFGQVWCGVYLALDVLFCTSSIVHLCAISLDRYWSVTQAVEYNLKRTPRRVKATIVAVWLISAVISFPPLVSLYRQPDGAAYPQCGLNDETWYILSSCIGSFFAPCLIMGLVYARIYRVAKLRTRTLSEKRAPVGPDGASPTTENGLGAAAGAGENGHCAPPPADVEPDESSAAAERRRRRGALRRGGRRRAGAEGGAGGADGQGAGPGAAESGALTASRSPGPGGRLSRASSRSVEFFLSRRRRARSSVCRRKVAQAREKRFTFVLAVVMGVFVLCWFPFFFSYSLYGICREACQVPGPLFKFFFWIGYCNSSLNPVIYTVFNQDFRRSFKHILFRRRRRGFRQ

human 5HT1D receptor = human 5HT1D receptor (human, UniProt P28221 1-377)
Chain of human 5HT1D receptor (P28221 whole entry): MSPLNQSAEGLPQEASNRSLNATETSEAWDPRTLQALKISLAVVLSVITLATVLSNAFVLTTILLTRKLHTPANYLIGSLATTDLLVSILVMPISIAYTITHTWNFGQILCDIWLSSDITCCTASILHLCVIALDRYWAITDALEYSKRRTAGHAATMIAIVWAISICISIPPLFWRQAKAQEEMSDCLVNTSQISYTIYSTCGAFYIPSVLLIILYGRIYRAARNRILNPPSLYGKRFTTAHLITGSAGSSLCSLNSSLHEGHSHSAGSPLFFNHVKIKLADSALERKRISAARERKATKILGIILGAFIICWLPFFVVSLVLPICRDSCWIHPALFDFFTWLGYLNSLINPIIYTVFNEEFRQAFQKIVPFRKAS

Chain of human dopamine D3 receptor (P35462 whole entry): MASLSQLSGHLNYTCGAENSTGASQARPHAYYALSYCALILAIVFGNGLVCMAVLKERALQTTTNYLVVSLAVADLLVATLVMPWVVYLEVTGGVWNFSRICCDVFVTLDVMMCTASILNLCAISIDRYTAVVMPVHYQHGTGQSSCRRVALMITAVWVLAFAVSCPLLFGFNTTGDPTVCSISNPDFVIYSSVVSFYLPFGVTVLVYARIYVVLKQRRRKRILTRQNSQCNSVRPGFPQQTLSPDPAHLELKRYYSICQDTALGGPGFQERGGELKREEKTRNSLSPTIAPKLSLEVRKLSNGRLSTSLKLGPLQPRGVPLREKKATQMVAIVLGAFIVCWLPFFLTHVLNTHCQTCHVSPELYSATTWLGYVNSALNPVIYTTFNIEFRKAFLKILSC
Chain of human kappa opioid receptor (P41145 whole entry): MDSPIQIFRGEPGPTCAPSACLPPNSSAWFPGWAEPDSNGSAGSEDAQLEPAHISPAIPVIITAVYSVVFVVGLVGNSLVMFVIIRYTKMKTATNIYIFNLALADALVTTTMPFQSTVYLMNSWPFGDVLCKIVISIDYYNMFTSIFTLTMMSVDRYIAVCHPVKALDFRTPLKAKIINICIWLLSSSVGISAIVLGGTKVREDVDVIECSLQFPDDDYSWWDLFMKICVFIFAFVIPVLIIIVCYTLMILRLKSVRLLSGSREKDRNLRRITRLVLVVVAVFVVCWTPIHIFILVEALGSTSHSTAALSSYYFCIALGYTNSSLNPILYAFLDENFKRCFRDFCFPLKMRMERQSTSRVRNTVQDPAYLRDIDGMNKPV
Chain of human dopamine D1 receptor (P21728 whole entry): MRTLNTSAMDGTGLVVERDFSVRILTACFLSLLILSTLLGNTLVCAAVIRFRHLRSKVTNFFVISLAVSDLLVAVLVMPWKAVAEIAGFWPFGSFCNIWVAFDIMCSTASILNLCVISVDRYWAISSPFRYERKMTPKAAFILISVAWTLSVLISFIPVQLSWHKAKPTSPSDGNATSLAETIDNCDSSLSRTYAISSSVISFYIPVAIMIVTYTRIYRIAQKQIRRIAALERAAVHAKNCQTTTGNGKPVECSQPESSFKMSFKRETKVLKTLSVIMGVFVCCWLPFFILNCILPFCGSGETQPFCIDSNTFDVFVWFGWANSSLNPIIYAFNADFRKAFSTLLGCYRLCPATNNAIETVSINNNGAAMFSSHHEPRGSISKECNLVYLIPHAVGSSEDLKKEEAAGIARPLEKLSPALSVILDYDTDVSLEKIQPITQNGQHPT

Binder	max Ca2+ signal, COS-7, FLIPR; 100 µM dopamine [1]	max Ca2+ signal, COS-7, FLIPR; agonist GAL (human GALR1 receptor)	max Ca2+ signal, COS-7, FLIPR; agonist NPY (human Y5 receptor)	max Ca2+ signal, COS-7, FLIPR; agonist NE [2]	max Ca2+ signal, COS-7, FLIPR; agonist DA [3]	max Ca2+ signal, COS-7, FLIPR; agonist U-69593 [4]	max Ca2+ signal, COS-7, FLIPR; agonist NE [5]	max Ca2+ signal, COS-7, FLIPR; agonist 5HT (human 5HT1D receptor)
B1	0 fluorescence units	4060 fluorescence units	6410 fluorescence units	4520 fluorescence units	0 fluorescence units	7860 fluorescence units	6110 fluorescence units	316 fluorescence units
B2	4830 fluorescence units	7650 fluorescence units	5310 fluorescence units	4980 fluorescence units	0 fluorescence units	5980 fluorescence units	4140 fluorescence units	414 fluorescence units
B3	–	8490 fluorescence units	6680 fluorescence units	5140 fluorescence units	121 fluorescence units	3470 fluorescence units	3870 fluorescence units	504 fluorescence units
